The supplement of paper PMC11908140

B1: library; numbered along this chain (parent)
chain: MRKPRAAVGSGHRKQAASQEGRQKHAKNNSQAKPSACDGLARQPEEVVLQASVSSYHLFRDVAEVTAFRGSLLSWYDQEKRDLPWRRRAEDEMDLDRRAYAVWVSEVMLQQTQVATVINYYTGWMQKWPTLQDLASASLEEVNQLWAGLGYYSRGRRLQEGARKVVEELGGHMPRTAETLQQLLPGVGRYTAGAIASIAFGQATGVVDGNVARVLCRVRAIGADPSSTLVSQQLWGLAQQLVDPARPGDFNQAAMELGATVCTPQRPLCSQCPVESLCRARQRVEQEQLLASGSLSGSPDVEECAPNTGQCHLCLPPSEPWDQTLGVVNFPRKASRKPPREESSATCVLEQPGALGAQILLVQRPNSGLLAGLWEFPSVTWEPSEQLQRKALLQELQRWAGPLPATHLRHLGEVVHTFSHIKLTYQVYGLALEGQTPVTTVPPGARWLTQEEFHTAAVSTAMKKVFRVYQGQQPGTCMGSKRSQVSSPCSRKKPRMGQQVLDNFFRSHISTDAHSLNSAAQ

Variants of: B1
Experiment: 8OG:A repair function score (normalized; synonymous = 0, nonsense = -1) (normalized log-likelihood score); higher = more repair activity (WT-like)
Details: with 8OG:A DNA repair reporter (GFP) in HEK-293 MUTYH KO cells
Procedure: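 Saturation mutagenesis (NNN codon scan) of the MUTYH cDNA (521-aa nuclear isoform NM_001048174.1 / NP_001041639), stably expressed under doxycycline induction in HEK-293 MUTYH knockout cells. Cells were co-transfected with an 8OG:A-bearing GFP repair reporter plus mCherry and sorted 72 h later into GFP+ and GFP− bins, three replicates per tile. The Rosace log2 enrichment (GFP+ vs GFP−) was converted per tile to a normalized function score with synonymous variants centered at 0 and nonsense variants (codons 1-471) at -1; low-abundance variants were removed.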

8OG:A repair function score: each site, then its substitutions
G188: R -0.844, F -1.06, H -0.662, Y -0.89, E -0.866, W -1.02, P -0.845, K -1.11, A -0.365, V -1.04, Q -0.909, D -1.09, T -1.03, M -0.929, C -0.839, S -0.643, L -0.95, N -0.923, I -1.11
Q182: E -0.0278, A 0.0281, F -0.161, V -0.022, Y 0.00409, I -0.0148, W -0.114, T -0.0374, G -0.00226, C -0.0792, M -0.0488, N -0.133, L -0.0117, H 0.0507, D -0.0172, K 0.129, R -0.0127, P -0.18, S 0.0262
L183: Y 0.0742, C -0.208, A -0.0103, R -0.105, I -0.112, K -0.0447, H 0.0988, D -0.21, Q 0.0196, G -0.0301, W -0.0703, M -0.13, F -0.0771, V 0.0213, N -0.102, P -0.826, E -0.0475, S 0.0487, T -0.0372
V187: L -0.609
R189: C -0.258, A -0.136
Q181: S -0.0472, T -0.0945, P -0.726, R -0.0552, A -0.034, F -0.0623, G -0.165, N -0.118, H -0.175, W -0.337, I -0.0381, E 0.0231, C -0.121, K -0.0739, V -0.114, Y 0.00604, L -0.0425, M -0.0648, D -0.331
G186: N -0.814, E -0.989, Q -0.401, Y -0.992, R -1.16, I -1.23, M -0.885, H -0.754, V -0.852, S -0.34, K -0.9, P -0.924, C -0.439, T -0.373, F -1.04, L -1.02, A -0.672, W -1.08, D -0.855
T179: Q -0.0228, H 0.0778, Y -0.146, I -0.04, N -0.0369, L 0.0629, M 0.0538, W -0.0647, P -0.236, R 0.0462, K 0.0976, S 0.00681, V -0.0453
L180: C -0.258, W -0.713, V -0.497, P -1.03, A -0.223, N -1.02, K -0.838, R -1.18, H -1.24, S -0.679, I -0.119, F -0.576, Q -0.655, Y -0.571, E -0.764, D -1.1, G -0.785, T -0.439
L184: V -0.238, C -0.317, A -0.718, R -1.2, Y -0.855, Q -0.899, M -0.281, F -0.304, D -1.16, E -1.09, P -1.21, T -0.62, S -0.911, K -0.925, W -1.13, H -1.05, I -0.0822, G -0.899, N -0.987
P185: I -0.275, D -0.333, F -0.285, A -0.225, M -0.282, R -0.264, H -0.43, N -0.12, K -0.102, C -0.242, Q -0.197, E -0.168, S -0.221, W -0.553, L -0.344, T -0.242, G -0.141, Y -0.363, V -0.299
